According to paper PMC6748103, “SPOP suppresses prostate cancer through regulation of CYCLIN E1 stability” (Cell Death and Differentiation, 2018):

Target: T1, GST-CCNE1 (UniProt P24864 1-410)
T1 construct: CYCLIN E1 (CCNE1), expressed in bacteria; also called GST-tagged CCEN1; GST-tagged CYCLIN E1
Test: pull-down; GST pull-down; His-SPOP and GST-CCNE1 expressed in bacteria and affinity purified
Details: both partners purified

T1 sequence (P24864 whole entry): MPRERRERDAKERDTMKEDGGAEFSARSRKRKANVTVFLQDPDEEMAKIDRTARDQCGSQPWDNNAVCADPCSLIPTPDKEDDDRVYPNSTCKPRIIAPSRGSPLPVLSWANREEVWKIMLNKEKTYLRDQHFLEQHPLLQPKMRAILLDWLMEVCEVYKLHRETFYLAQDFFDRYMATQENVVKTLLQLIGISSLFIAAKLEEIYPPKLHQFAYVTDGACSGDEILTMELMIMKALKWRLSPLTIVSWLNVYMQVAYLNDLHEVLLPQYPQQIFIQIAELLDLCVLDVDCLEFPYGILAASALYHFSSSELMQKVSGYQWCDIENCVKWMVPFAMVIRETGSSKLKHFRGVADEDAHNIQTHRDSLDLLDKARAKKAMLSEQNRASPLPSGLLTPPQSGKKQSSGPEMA

B1: His-tagged SPOP (natural protein, UniProt O43791 1-374, looked up)
chain: MSRVPSPPPPAEMSSGPVAESWCYTQIKVVKFSYMWTINNFSFCREEMGEVIKSSTFSSGANDKLKWCLRVNPKGLDEESKDYLSLYLLLVSCPKSEVRAKFKFSILNAKGEETKAMESQRAYRFVQGKDWGFKKFIRRDFLLDEANGLLPDDKLTLFCEVSVVQDSVNISGQNTMNMVKVPECRLADELGGLWENSRFTDCCLCVAGQEFQAHKAILAARSPVFSAMFEHEMEESKKNRVEINDVEPEVFKEMMCFIYTGKAPNLDKMADDLLAAADKYALERLKVMCEDALCSNLSVENAAEILILADLHSADQLKTQAVDFINYHASDVLETSGWKSMVVSHPHLVAEAYRSLASAQCPFLGPPRKRLKQS
notes: SPOP, expressed in bacteria; also called His-SPOP
Question: Does B1 bind?
Answer: Result: binds
